From the supplement of paper PMC10567573

B1: DVL3 (parent)
chain: FCADNPSELPPPMERTGGIGDSRP

Variants of: B1
Assay: protein stability index of a GFP-peptide fusion (GPS, HEK-293T) (PSI 1-6); higher = more stable
Settings: c terminus: a fixed tail appended
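Note: lentivirally expressed fusions sorted by FACS into six bins by GFP to DsRed ratio, PSI derived from sequencing read proportions per bin multiplied by bin number.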

Protein stability index, by site and new letter:
P10: G 4.13 | K 4.37 | R 4.08 | N 4.54 | Q 4.27 | D 4.81 | E 2.94 | T 4.61 | M 4.54 | Y 3.74 | I 3.81 | C 3.81 | A 4.29 | W 3.13 | L 4.32 | F 3.41 | H 4.3 | S 4.38 | V 4.49
P11: T 5.12 | I 4.54 | N 4.26 | S 4.58 | A 5.1 | D 4.74 | C 4.33 | Y 4.23 | F 3.83 | M 4.45 | Q 4.54 | E 4.05 | G 4.16 | L 4.64 | R 3.91 | H 4.43 | V 3.94 | W 3.64
G17: M 4.48 | I 4.09 | Q 4.73 | F 3.79 | N 4.74 | P 4.85 | K 4.89 | E 4.54 | S 4.3 | D 4.61 | H 4.69 | A 4.51 | L 4.12 | R 4.62
E14: H 4.08 | F 3.45 | T 4.1 | W 1.93 | K 4.07 | S 4.31 | D 4.55 | Y 3.13 | M 4.37 | C 3.68 | I 3.98 | Q 4.1 | R 3.78 | N 4.35 | G 3.84 | P 4.27 | A 4.24 | L 3.05
R15: N 4.79 | S 4.82 | I 4.56 | W 3.77 | A 5.48 | D 4.76 | E 5.37 | P 4.99 | K 4.45 | T 4.55 | L 4.51 | C 4.69 | G 4.56 | Y 4.39 | M 4.25 | F 4.1 | H 4.97 | V 4.5 | Q 4.37
L9: N 5.1 | I 4.53 | H 4.66 | R 4.32 | F 4.44 | E 5.34 | C 4.79 | Q 4.16 | M 4.34 | V 4.82 | Y 4.11 | K 4.66 | S 4.99
E8: L 3.67 | S 4.63 | W 2.03 | P 4.14 | N 4.26 | R 3.05 | Y 3.25 | Q 2.77 | M 3.49 | T 4.02
P12: G 4.39 | D 5.2 | R 3.93 | I 3.76 | N 4.69 | M 4.19 | S 4.07 | T 3.99 | E 4.89 | V 4.62 | L 4.63 | Y 3.63 | A 5.55 | Q 4.75 | W 1.75 | F 3.41 | H 4.61 | K 4.69 | C 4.07
M13: N 4.77 | E 5.18 | F 4.6 | D 4.98 | S 4.25 | Y 4.07 | W 2.97 | G 4.67 | L 4.98 | T 4.57 | K 5.04 | Q 5 | V 4.89 | A 5.31 | H 4.77 | I 4.27 | R 4.2 | C 4.22
T16: F 3.95 | I 3.98 | Q 5 | C 4.07 | W 2.55 | L 3.8 | Y 3.96 | P 3.87 | A 4.6 | M 4.11 | G 4.45 | N 4.7 | E 4.45 | R 4.5 | H 4.33 | D 5.18 | V 4.02 | K 4.29 | S 4.25
